Experimental data: the Human Domainome abundance scans (Beltran et al. 2025)
± gives the uncertainty stated by the source.

B1: Tripartite motif-containing protein 49C, residues 87 to 133; numbered along this chain, P0CI26 (parent)
chain: SSEEQMCGTHRETKKIFCEVDRSLLCLLCSSSQEHRYHRHRPIEWAA

Variants of: B1
Assay: abundance fitness (aPCA) (normalised: wild type 0, dead -1); higher = more abundant; growth selection in yeast, the domain comes from the species named
Conditions: Homo sapiens

Variant | abundance fitness
SSEEQMCGTHRETKKIFCEVDRSLLCLLCSSSQEVRYHRHRPIEWAA [H35V] | -0.892 ± 0.12
SSEEQMCGTHRETKKIFCEVDRSLLCLLCSSSQEYRYHRHRPIEWAA [H35Y] | -1.06 ± 0.16
SSEEQMCGTHRETKKIFCEVDRSLLCLLCSSSQERRYHRHRPIEWAA [H35R] | -0.799 ± 0.099
SSEEQMCGTHRETKKIFCEVDRSLLCLLCSSSQETRYHRHRPIEWAA [H35T] | -0.929 ± 0.16
SSEEQMCGTHRETKKIFCEVDRSLLCLLCSSSQEIRYHRHRPIEWAA [H35I] | -0.882 ± 0.19
SSEEQMCGTHRETKKIFCEVDRSLLCLLCSSSQEDRYHRHRPIEWAA [H35D] | -0.821 ± 0.17
SSEEQMCGTHRETKKIFCEVDRSLLCLLCSSSQEFRYHRHRPIEWAA [H35F] | -0.75 ± 0.16
SSEEQMCGTHRETKKIFCEVDRSLLCLLCSSSQEERYHRHRPIEWAA [H35E] | -0.997 ± 0.26
SSEEQMCGTHRETKKIFCEVDRSLLCLLCSSSQEKRYHRHRPIEWAA [H35K] | -0.929 ± 0.21
SSEEQMCGTHRETKKIFCEVDRSLLCLLCSSSQECRYHRHRPIEWAA [H35C] | -0.636 ± 0.12
SSEEQMCGTHRETKKIFCEVDRSLLCLLCSSSQELRYHRHRPIEWAA [H35L] | -1.08 ± 0.14
SSEEQMCGTHRETKKIFCEVDRSLLCLLCSSSQEGRYHRHRPIEWAA [H35G] | -0.769 ± 0.094
SSEEQMCGTHRETKKIFCEVDRSLLCLLCSSSQEWRYHRHRPIEWAA [H35W] | -0.846 ± 0.14
SSEEQMCGTHRETKKIFCEVDRSLLCLLCSSSQEQRYHRHRPIEWAA [H35Q] | -1.09 ± 0.22
SSEEQMCGTHRETKKIFCEVDRSLLCLLCSSSQEPRYHRHRPIEWAA [H35P] | -0.676 ± 0.14
SSEEQMCGTHRETKKIFCEVDRSLLCLLCSSSQEMRYHRHRPIEWAA [H35M] | -0.916 ± 0.17
SSEEQMCGTHRETKKIFCEVDRSLLCLLCSYSQEHRYHRHRPIEWAA [S31Y] | -0.244 ± 0.21
SSEEQMCGTHRETKKIFCEVDRSLLCLLCSTSQEHRYHRHRPIEWAA [S31T] | -0.328 ± 0.13
SSEEQMCGTHRETKKIFCEVDRSLLCLLCSWSQEHRYHRHRPIEWAA [S31W] | 0.015 ± 0.093
SSEEQMCGTHRETKKIFCEVDRSLLCLLCSVSQEHRYHRHRPIEWAA [S31V] | -0.122 ± 0.089
SSEEQMCGTHRETKKIFCEVDRSLLCLLCSRSQEHRYHRHRPIEWAA [S31R] | -0.017 ± 0.083
SSEEQMCGTHRETKKIFCEVDRSLLCLLCSSSQPHRYHRHRPIEWAA [E34P] | -0.834 ± 0.15
SSEEQMCGTHRETKKIFCEVDRSLLCLLCSSSQVHRYHRHRPIEWAA [E34V] | -0.492 ± 0.09
SSEEQMCGTHRETKKIFCEVDRSLLCLLCSSSQWHRYHRHRPIEWAA [E34W] | -0.928 ± 0.15
SSEEQMCGTHRETKKIFCEVDRSLLCLLCSSSQMHRYHRHRPIEWAA [E34M] | -0.496 ± 0.12
SSEEQMCGTHRETKKIFCEVDRSLLCLLCSSSQTHRYHRHRPIEWAA [E34T] | -0.349 ± 0.1
SSEEQMCGTHRETKKIFCEVDRSLLCLLCSSSQGHRYHRHRPIEWAA [E34G] | -0.492 ± 0.095
SSEEQMCGTHRETKKIFCEVDRSLLCLLCSSSQFHRYHRHRPIEWAA [E34F] | -0.748 ± 0.17

Variant | abundance fitness
SSEEQMCGTHRETKKIFCEVDRSLLCLLCSSSQIHRYHRHRPIEWAA [E34I] | -0.818 ± 0.19
SSEEQMCGTHRETKKIFCEVDRSLLCLLCSSSQQHRYHRHRPIEWAA [E34Q] | -0.41 ± 0.14
SSEEQMCGTHRETKKIFCEVDRSLLCLLCSSSQNHRYHRHRPIEWAA [E34N] | -0.417 ± 0.15
SSEEQMCGTHRETKKIFCEVDRSLLCLLCSSSQLHRYHRHRPIEWAA [E34L] | -0.659 ± 0.1
SSEEQMCGTHRETKKIFCEVDRSLLCLLCSSSQDHRYHRHRPIEWAA [E34D] | 0.041 ± 0.12
SSEEQMCGTHRETKKIFCEVDRSLLCLLCSSSQCHRYHRHRPIEWAA [E34C] | -0.514 ± 0.17
SSEEQMCGTHRETKKIFCEVDRSLLCLLCSSSQHHRYHRHRPIEWAA [E34H] | -0.046 ± 0.17
SSEEQMCGTHRETKKIFCEVDRSLLCLLCSSSQSHRYHRHRPIEWAA [E34S] | -0.281 ± 0.1
SSEEQMCGTHRETKKIFCEVDRSLLCLLCSSSQRHRYHRHRPIEWAA [E34R] | -0.557 ± 0.091
SSEEQMCGTHRETKKIFCEVDRSLLCLLCSSSQKHRYHRHRPIEWAA [E34K] | -0.246 ± 0.14
SSEEQMCGTHRETKKIFCEVDRSLLCLLCSSAQEHRYHRHRPIEWAA [S32A] | -0.222 ± 0.095
SSEEQMCGTHRETKKIFCEVDRSLLCLLCSSFQEHRYHRHRPIEWAA [S32F] | -0.465 ± 0.14
SSEEQMCGTHRETKKIFCEVDRSLLCLLCSSHQEHRYHRHRPIEWAA [S32H] | -0.483 ± 0.22
SSEEQMCGTHRETKKIFCEVDRSLLCLLCSSVQEHRYHRHRPIEWAA [S32V] | -0.301 ± 0.11
SSEEQMCGTHRETKKIFCEVDRSLLCLLCSSRQEHRYHRHRPIEWAA [S32R] | 0.017 ± 0.096
SSEEQMCGTHRETKKIFCEVDRSLLCLLCSSWQEHRYHRHRPIEWAA [S32W] | -0.464 ± 0.13
SSEEQMCGTHRETKKIFCEVDRSLLCLLCSSEQEHRYHRHRPIEWAA [S32E] | -0.364 ± 0.15
SSEEQMCGTHRETKKIFCEVDRSLLCLLCSSYQEHRYHRHRPIEWAA [S32Y] | -0.224 ± 0.15
SSEEQMCGTHRETKKIFCEVDRSLLCLLCSSPQEHRYHRHRPIEWAA [S32P] | -0.442 ± 0.14
SSEEQMCGTHRETKKIFCEVDRSLLCLLCSSNQEHRYHRHRPIEWAA [S32N] | -0.134 ± 0.25
SSEEQMCGTHRETKKIFCEVDRSLLCLLCSSTQEHRYHRHRPIEWAA [S32T] | -0.278 ± 0.12
SSEEQMCGTHRETKKIFCEVDRSLLCLLCSSLQEHRYHRHRPIEWAA [S32L] | -0.313 ± 0.1
SSEEQMCGTHRETKKIFCEVDRSLLCLLCSSDQEHRYHRHRPIEWAA [S32D] | -0.041 ± 0.12
SSEEQMCGTHRETKKIFCEVDRSLLCLLCSSIQEHRYHRHRPIEWAA [S32I] | -0.947 ± 0.21
SSEEQMCGTHRETKKIFCEVDRSLLCLLCSSQQEHRYHRHRPIEWAA [S32Q] | -0.116 ± 0.11
SSEEQMCGTHRETKKIFCEVDRSLLCLLCSSCQEHRYHRHRPIEWAA [S32C] | -0.414 ± 0.16
SSEEQMCGTHRETKKIFCEVDRSLLCLLCSSMQEHRYHRHRPIEWAA [S32M] | -0.141 ± 0.11
